Experimental data reported in PMC2928128.

Target: GST-CDH23Δexon68ΔITEL (residues 847-1075)
Assay: SPR

Kd	Binder
58 nM	harmonin-a Nter-PDZ1 fragment (residues 1-203) (domain or fragment) MDRKVAREFRHKVDFLIENDAEKDYLYDVLRMYHQTMDVAVLVGDLKLVINEPNRLPLFDAIRPLIPLKHQVEYDQLTPRRSRKLKEVRLDRLHPEGLGLSVRGGLEFGCGLFISHLIKGGQADSVGLQVGDEIVRINGYSISSCTHEEVINLIRTKKTVSIKVRHIGLIPVKSSPEESLKWQYVDQFVSESGGVRGGLGSPG
> 5000 nM	harmonin-a Nter domain (residues 1-79) (domain or fragment) MDRKVAREFRHKVDFLIENDAEKDYLYDVLRMYHQTMDVAVLVGDLKLVINEPNRLPLFDAIRPLIPLKHQVEYDQLTP
